Data on one molecule can be found in PMC8643467, “Appearance of peanut agglutinin in the blood circulation after peanut ingestion promotes endothelial secretion of metastasis-promoting cytokines” (Carcinogenesis, 2021).

The assay has as its target MCAM (CD146), melanoma cell adhesion molecule (human (endogenous in HUVECs), UniProt P43121 24-646). Briefly: cell-based or functional assay.

B1: Peanut agglutinin (PNA), agarose-conjugated (natural protein, Arachis hypogaea, UniProt P02872 24-273, looked up)
chain: AETVSFNFNSFSEGNPAINFQGDVTVLSNGNIQLTNLNKVNSVGRVLYAMPVRIWSSATGNVASFLTSFSFEMKDIKDYDPADGIIFFIAPEDTQIPAGSIGGGTLGVSDTKGAGHFVGVEFDTYSNSEYNDPPTDHVGIDVNSVDSVKTVPWNSVSGAVVKVTVIYDSSTKTLSVAVTNDNGDITTIAQVVDLKAKLPERVKFGFSASGSLGGRQIHLIRSWSFTSTLITTTRRSIDNNEKKIMNMASA
Turning to B1, the “IL-6 secretion from HUVECs by ELISA, dose series of PNA, highest after 24 h with 8 μg/ml PNA” value amounted to 3 fold and the “MCP-1 secretion from HUVECs by ELISA, dose series of PNA, highest after 24 h with 8 μg/ml PNA” value was 13 fold.
